Measurements reported in PMC4389316, “C-terminal residues of skeletal muscle calsequestrin are essential for calcium binding and for skeletal ryanodine receptor inhibition” (Skeletal Muscle, 2015).

T1: skeletal triadin 95 kDa (trisk95) (rabbit (endogenous in skeletal muscle …, UniProt Q28820 1-706))
T1 construct: triadin, skeletal muscle 95 kDa isoform, isolated from SR vesicles of New Zealand White rabbit back and leg muscle; also called triadin skeletal muscle 95 kDa; source: purified from rabbit skeletal SR vesicles (SDS preparative gel electrophoresis)
T1 sequence (looked up): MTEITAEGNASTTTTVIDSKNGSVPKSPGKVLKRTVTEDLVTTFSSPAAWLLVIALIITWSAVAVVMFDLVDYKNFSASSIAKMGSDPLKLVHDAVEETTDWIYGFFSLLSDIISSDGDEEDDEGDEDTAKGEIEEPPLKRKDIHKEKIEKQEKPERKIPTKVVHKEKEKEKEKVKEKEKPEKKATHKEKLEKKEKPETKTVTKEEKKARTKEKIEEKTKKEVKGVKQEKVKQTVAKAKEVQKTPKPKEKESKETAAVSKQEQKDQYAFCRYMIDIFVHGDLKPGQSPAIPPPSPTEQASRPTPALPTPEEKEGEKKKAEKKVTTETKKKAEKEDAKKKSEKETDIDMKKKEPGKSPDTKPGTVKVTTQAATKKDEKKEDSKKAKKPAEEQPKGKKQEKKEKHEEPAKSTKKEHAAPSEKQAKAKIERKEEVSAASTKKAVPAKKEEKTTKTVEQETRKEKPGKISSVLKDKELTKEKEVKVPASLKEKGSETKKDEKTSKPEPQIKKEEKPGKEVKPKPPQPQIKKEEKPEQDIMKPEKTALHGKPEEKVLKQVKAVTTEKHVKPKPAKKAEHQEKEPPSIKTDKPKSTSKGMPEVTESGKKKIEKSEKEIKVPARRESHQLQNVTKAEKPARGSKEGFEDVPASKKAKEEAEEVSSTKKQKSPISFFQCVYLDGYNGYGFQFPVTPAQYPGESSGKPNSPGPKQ


Assays:
junctin = assay: co-immunoprecipitation (CSQ1 IP, Western blot densitometry); conditions: 1 mM Ca2+; parent: est. 100; read off a plot
[1] = target: ryanodine receptor type 1 (RyR1), purified (rabbit (endogenous in skeletal muscle …, UniProt P11716 1-5037)); assay: cell-based or functional assay
Sequence of ryanodine receptor type 1 (RyR1), purified (rabbit (P11716 whole entry): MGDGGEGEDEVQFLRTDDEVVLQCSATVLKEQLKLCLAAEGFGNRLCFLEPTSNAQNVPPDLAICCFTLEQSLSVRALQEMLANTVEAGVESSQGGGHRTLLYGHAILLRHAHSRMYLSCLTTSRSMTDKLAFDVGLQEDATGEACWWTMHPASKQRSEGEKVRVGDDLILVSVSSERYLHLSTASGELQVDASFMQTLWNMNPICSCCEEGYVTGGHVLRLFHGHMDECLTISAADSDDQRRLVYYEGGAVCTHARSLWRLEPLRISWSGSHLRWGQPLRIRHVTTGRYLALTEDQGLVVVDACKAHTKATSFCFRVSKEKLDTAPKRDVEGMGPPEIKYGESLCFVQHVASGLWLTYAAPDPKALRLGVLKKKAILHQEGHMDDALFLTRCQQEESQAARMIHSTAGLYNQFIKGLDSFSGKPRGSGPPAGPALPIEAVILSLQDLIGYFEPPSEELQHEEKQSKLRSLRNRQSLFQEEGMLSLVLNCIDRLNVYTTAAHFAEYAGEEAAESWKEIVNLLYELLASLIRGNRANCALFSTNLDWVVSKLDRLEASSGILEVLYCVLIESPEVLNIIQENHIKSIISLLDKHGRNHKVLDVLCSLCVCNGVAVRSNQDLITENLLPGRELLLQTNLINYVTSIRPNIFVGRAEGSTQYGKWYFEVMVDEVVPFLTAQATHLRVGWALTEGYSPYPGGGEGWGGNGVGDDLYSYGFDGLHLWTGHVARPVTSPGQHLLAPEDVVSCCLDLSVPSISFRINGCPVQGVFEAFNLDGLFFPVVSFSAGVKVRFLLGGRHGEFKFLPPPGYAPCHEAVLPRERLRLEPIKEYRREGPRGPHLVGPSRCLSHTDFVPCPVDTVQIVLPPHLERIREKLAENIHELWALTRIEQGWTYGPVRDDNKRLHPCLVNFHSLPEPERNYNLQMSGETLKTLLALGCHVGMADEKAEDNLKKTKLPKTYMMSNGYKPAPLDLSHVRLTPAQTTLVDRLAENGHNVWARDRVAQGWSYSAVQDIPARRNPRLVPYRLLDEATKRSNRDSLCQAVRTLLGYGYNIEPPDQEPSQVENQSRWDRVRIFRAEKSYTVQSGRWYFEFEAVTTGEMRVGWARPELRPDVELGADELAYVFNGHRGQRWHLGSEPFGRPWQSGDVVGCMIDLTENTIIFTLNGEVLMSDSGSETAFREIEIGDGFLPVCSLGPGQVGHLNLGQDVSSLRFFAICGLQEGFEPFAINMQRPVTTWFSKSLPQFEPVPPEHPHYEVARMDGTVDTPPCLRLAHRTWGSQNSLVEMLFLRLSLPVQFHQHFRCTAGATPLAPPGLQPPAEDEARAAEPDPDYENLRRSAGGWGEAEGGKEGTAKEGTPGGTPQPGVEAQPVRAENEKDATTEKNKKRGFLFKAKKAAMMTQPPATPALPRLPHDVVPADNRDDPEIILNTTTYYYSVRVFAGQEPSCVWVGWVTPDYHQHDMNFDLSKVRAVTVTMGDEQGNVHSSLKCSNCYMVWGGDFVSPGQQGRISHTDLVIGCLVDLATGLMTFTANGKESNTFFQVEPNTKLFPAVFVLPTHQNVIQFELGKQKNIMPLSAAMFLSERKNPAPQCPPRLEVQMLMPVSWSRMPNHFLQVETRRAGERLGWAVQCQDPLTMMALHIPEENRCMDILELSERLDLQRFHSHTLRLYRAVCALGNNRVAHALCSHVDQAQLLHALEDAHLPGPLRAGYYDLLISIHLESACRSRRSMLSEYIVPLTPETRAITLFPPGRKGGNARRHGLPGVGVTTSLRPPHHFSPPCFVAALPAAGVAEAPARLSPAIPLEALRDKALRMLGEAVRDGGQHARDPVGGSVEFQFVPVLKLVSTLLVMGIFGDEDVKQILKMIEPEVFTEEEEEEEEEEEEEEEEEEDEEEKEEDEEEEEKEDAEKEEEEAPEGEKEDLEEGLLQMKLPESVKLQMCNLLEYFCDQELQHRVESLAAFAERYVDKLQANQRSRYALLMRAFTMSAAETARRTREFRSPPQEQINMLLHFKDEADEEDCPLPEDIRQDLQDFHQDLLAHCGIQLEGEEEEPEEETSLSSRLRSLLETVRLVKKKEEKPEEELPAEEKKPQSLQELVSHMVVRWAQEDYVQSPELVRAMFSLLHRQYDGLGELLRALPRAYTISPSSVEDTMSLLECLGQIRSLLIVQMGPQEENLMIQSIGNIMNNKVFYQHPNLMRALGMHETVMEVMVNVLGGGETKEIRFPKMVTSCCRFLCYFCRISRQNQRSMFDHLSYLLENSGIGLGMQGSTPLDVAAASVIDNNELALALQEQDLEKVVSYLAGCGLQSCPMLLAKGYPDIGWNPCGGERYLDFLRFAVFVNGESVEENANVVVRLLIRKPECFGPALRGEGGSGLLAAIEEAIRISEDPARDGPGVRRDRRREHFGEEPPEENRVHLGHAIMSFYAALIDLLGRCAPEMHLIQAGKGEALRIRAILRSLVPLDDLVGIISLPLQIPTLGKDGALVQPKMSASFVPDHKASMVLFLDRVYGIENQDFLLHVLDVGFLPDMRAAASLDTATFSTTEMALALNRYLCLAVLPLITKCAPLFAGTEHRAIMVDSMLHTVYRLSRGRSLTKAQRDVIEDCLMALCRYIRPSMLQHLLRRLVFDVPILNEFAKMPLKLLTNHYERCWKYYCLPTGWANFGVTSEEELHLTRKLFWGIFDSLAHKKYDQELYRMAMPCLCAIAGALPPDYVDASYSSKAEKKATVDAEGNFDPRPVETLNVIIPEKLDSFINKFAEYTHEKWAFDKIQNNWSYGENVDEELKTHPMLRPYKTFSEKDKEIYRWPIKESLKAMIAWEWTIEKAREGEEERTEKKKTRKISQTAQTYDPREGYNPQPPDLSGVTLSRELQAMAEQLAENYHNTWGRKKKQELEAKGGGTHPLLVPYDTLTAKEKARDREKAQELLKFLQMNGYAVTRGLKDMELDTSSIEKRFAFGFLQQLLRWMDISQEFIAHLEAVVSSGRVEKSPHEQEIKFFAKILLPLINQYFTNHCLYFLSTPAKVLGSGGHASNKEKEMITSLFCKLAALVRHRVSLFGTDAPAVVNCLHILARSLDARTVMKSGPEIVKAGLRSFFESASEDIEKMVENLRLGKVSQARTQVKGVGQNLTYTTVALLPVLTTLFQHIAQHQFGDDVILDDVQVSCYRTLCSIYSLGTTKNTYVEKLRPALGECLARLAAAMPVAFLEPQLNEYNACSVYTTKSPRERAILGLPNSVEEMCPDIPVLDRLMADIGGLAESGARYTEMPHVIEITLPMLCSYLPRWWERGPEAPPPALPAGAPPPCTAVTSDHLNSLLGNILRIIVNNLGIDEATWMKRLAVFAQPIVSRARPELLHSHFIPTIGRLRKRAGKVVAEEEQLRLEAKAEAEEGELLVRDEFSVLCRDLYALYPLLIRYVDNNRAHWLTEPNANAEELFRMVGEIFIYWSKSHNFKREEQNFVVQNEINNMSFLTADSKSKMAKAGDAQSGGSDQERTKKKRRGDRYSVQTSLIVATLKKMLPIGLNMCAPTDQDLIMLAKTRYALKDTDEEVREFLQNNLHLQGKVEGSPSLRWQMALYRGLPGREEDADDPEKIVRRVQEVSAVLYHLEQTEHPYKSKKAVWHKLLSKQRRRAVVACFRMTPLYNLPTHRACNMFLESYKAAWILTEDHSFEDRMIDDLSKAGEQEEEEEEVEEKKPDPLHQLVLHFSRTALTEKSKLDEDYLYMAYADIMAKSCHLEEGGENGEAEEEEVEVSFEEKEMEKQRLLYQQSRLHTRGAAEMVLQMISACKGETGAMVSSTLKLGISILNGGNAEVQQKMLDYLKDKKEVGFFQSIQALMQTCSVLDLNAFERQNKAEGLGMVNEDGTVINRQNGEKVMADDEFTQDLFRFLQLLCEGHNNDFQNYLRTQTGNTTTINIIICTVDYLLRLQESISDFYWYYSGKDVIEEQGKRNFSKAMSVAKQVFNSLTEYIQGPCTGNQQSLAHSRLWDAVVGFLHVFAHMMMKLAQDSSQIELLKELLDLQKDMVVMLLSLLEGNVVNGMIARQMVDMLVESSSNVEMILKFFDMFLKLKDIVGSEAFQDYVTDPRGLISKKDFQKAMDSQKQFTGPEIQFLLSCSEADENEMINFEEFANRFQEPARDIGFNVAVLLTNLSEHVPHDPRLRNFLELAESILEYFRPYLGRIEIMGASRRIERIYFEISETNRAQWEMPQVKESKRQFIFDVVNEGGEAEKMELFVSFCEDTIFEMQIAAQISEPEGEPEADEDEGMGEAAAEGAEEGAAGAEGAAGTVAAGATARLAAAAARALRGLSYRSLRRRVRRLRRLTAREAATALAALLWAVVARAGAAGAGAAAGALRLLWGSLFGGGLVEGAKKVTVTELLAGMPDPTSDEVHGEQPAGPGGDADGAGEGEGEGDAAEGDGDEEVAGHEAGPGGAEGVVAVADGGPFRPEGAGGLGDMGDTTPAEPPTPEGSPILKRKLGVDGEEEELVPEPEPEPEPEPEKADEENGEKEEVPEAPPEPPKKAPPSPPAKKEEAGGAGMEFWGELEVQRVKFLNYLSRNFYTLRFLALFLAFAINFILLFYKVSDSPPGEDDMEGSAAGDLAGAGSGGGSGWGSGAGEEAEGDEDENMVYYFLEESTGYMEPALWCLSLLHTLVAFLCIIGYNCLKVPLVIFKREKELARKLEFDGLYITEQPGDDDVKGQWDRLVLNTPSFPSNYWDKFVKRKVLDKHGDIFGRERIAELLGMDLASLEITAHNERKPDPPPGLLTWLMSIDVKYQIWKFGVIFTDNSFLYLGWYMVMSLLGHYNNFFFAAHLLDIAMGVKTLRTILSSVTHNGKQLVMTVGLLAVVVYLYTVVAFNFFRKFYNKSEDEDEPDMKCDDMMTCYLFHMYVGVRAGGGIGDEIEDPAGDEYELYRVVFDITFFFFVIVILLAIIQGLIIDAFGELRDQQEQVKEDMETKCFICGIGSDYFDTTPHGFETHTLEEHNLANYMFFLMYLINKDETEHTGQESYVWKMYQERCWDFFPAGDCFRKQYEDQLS

[2] = target: T1, skeletal triadin 95 kDa (trisk95); assay: co-IP; purified CSQ1 construct coupled to anti-CSQ1/protein A/G agarose (Pierce kit), then exposed to purified trisk95 or junctin; 20 mM MOPS, 150 mM NaCl, 1 mM CaCl2, pH 7.4; CSQ1 to partner 2:1 by weight; Western blot; conditions: both partners purified

Molecule	percent of parent (% relative binding) (junctin)	binding result [2]	further results
wild-type (WT) calsequestrin type 1 (CSQ1), rabbit (from UniProt P07221) D365A; D367A	110	–	–
wild-type (WT) calsequestrin type 1 (CSQ1), rabbit (from UniProt P07221) D363A; D365A; D367A	92	–	–
wild-type (WT) calsequestrin type 1 (CSQ1), rabbit (from UniProt P07221) D367A	110	–	–
wild-type (WT) calsequestrin type 1 (CSQ1), rabbit (natural protein, UniProt P07221 29-395, looked up, GST was cleaved with Factor Xa for single channel and 45Ca studies; probably GST-CSQ1 on Glutathione Sepharose; the discussion calls WT 'full-length CSQ1', while the numbering (C-terminus = 367) is that of the mature protein; also called WT CSQ1; WT CSQ; source: rabbit CSQ1 cDNA in pGEX5x1, expressed as previously described [34], purified) EEGLDFPEYDGVDRVINVNAKNYKNVFKKYEVLALLYHEPPEDDKASQRQFEMEELILELAAQVLEDKGVGFGLVDSEKDAAVAKKLGLTEEDSIYVFKEDEVIEYDGEFSADTLVEFLLDVLEDPVELIEGERELQAFENIEDEIKLIGYFKNKDSEHYKAFKEAAEEFHPYIPFFATFDSKVAKKLTLKLNEIDFYEAFMEEPVTIPDKPNSEEEIVNFVEEHRRSTLRKLKPESMYETWEDDMDGIHIVAFAEEADPDGYEFLEILKSVAQDNTDNPDLSIIWIDPDDFPLLVPYWEKTFDIDLSAPQIGVVNVTDADSVWMEMDDEEDLPSAEELEDWLEDVLEGEINTEDDDDEDDDDDDDD	–	binds	activation of purified RyR1 in lipid bilayers by WT CSQ1 [1]: ~2.8 fold
CSQ1DA3 (rabbit CSQ1 with three alternate C-terminal acidic residues changed to alanine) (natural protein, UniProt P07221 29-395, looked up, GST state as for m1; also called CSQ1D∆3; source: rabbit CSQ1 cDNA in pGEX5x1, expressed as previously described [34], purified) EEGLDFPEYDGVDRVINVNAKNYKNVFKKYEVLALLYHEPPEDDKASQRQFEMEELILELAAQVLEDKGVGFGLVDSEKDAAVAKKLGLTEEDSIYVFKEDEVIEYDGEFSADTLVEFLLDVLEDPVELIEGERELQAFENIEDEIKLIGYFKNKDSEHYKAFKEAAEEFHPYIPFFATFDSKVAKKLTLKLNEIDFYEAFMEEPVTIPDKPNSEEEIVNFVEEHRRSTLRKLKPESMYETWEDDMDGIHIVAFAEEADPDGYEFLEILKSVAQDNTDNPDLSIIWIDPDDFPLLVPYWEKTFDIDLSAPQIGVVNVTDADSVWMEMDDEEDLPSAEELEDWLEDVLEGEINTEDDDDEDDDADADA	–	binds	–
CSQ1_(∆C14) (rabbit CSQ1 lacking the whole C-terminal tail, residues 354-367) (domain or fragment, UniProt P07221 29-381, looked up) EEGLDFPEYDGVDRVINVNAKNYKNVFKKYEVLALLYHEPPEDDKASQRQFEMEELILELAAQVLEDKGVGFGLVDSEKDAAVAKKLGLTEEDSIYVFKEDEVIEYDGEFSADTLVEFLLDVLEDPVELIEGERELQAFENIEDEIKLIGYFKNKDSEHYKAFKEAAEEFHPYIPFFATFDSKVAKKLTLKLNEIDFYEAFMEEPVTIPDKPNSEEEIVNFVEEHRRSTLRKLKPESMYETWEDDMDGIHIVAFAEEADPDGYEFLEILKSVAQDNTDNPDLSIIWIDPDDFPLLVPYWEKTFDIDLSAPQIGVVNVTDADSVWMEMDDEEDLPSAEELEDWLEDVLEGEINT	–	–	rise in activity (open probability) of purified RyR1 in lipid bilayers after trans addition of CSQ1∆C14 [1]: ~1.9 fold
